In patent publication US20070065447A1 (Novo Nordisk, published 2007):
Bridge positions count the residues as written; N and C are the ends. Ends that are not written are not given here.

T1: cyclic peptide X253 (Ln-5 residues 425-444) (human, Cys-Cys disulfide bond (cyclic peptide))
T1 construct: Used unpurified
T1 peptide: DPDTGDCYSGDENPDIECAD

T2: cyclic peptide X254 (Ln-5 residues 494-516, +E) (human, Cys-Cys disulfide bond (cyclic peptide))
T2 peptide: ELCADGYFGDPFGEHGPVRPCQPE

T3: cyclic peptide X255 (R+, Ln-5 residues 518-537) (human, Cys-Cys disulfide bond (cyclic peptide))
T3 peptide: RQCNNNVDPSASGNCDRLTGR

T4: cyclic peptide X256 (Ln-5 residues 539-552 + R) (human, disulfide 3-12 (inferred))
T4 peptide: LKCIHNTAGIYCDQR

T5: GST-γ2III-7 (a.a. residues 461-653) (human, UniProt Q13753 461-653)
T5 construct: Recombinant GST-γ2III-chain fragment; not shown: glutathione S-transferase (GST) fusion partner
T5 sequence: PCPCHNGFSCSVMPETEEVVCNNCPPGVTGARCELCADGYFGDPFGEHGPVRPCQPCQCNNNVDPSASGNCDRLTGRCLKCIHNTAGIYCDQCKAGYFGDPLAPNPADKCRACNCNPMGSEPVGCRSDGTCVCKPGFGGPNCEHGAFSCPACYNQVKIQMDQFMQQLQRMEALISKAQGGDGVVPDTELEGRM

T6: GST-γ2III-20 (a.a. residues 461-534) (human, UniProt Q13753 461-534)
T6 construct: Recombinant GST-γ2III-chain fragment, used in the second set of experiments only; also called GST-γIII-20; not shown: glutathione S-transferase (GST) fusion partner
T6 sequence: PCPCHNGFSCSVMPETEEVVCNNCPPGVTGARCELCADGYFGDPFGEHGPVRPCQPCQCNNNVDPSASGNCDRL

T7: cyclic peptide X252 (Ln-5 residues 394-415 + R) (human, Cys-Cys disulfide bond (cyclic peptide))
T7 construct: Used unpurified
T7 peptide: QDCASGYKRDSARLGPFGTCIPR


What was measured:
[1] = target: T1, cyclic peptide X253 (Ln-5 residues …); assay: direct ELISA on coated cyclic peptides
Experimental: (§1) The identity of these peptides was verified by mass spectrometry. Solutions containing the five peptides, in an unpurified state, were individually subjected to direct ELISA analysis using standard techniques. Briefly, NUNC-IMMUNO plates were coated with 100 μl/well of 50 μg/ml peptide in carbonate buffer and allowed to sit overnight at +4° C. […] The plates were washed five times with PBS to remove unbound peptide and subjected to one hour blocking at room temperature by exposure with a washing/blocking buffer (0.05% Tween-20 in PBS (PBST)), which was thereafter removed. 100 ng of antibody (100 μl of solution containing an antibody solution at a concentration of 1 μg antibody/ml) for each of the three mAbs (4G1, 5D5, and 6C12) was added to the test wells. Dilution buffer was added to the control wells. The plates were incubated at room temperature for one hour, and thereafter washed four times in PBST.
(§2) 100 μl HRP-anti-mouse secondary Ab diluted in a dilution buffer at a ratio of 1:2000 was added to each well and the plates were incubated for one hour at room temperature, and thereafter washed 4 times with PBST. The plates were then developed with 100 μl TMB substrate for a period of 15-30 minutes in the dark (during which time the plates were monitored for color development). At an appropriate time, the reaction was stopped in each well with the addition of 4M H3PO4. Absorbance measurements were taken at 450 nm and 620 nm, ratios of absorbance determined, and the data evaluated. These experiments were performed in triplicate.

[2] = target: T2, cyclic peptide X254 (Ln-5 residues …); assay: direct ELISA on coated cyclic peptides
Experimental: as §1, §2

[3] = target: T3, cyclic peptide X255 (R+, Ln-5 residues …); assay: direct ELISA on coated cyclic peptides
Experimental: as §1, §2

[4] = target: T4, cyclic peptide X256 (Ln-5 residues …); assay: direct ELISA on coated cyclic peptides
Experimental: as §1, §2

[5] = target: T8, GST-γ2III fusion protein (glutathione S-transferase:γ2 DIII fragment fusion protein, human laminin γ2 amino … (human)); assay: SPR (BIAcore, RAMFc chip, HBS-EP buffer), mAb against GST-γ2DIII fusion protein
T8 construct: also called GST-γ2DIII; GST-γ2 DIII
Experimental: Resulting reflection/refractive index data obtained from these analyses (at 200 nM, 500 nM, 200 nM, 50 nM, and 20 nM) are presented individually in FIGS. 19A-19C.

[6] = target: T5, GST-γ2III-7 (a.a. residues 461-653); assay: direct ELISA, fusion proteins coated at 100 ng/well, A405 (Example 3, first experiment)
Experimental: (§3) The stepwise protocol set forth below was used for the ELISAs, which were performed with biotinylated mAb 4G1, mAb 5D5, and mAb 6C12 (GST, BSA, and plastic used as controls in the first experiment; GST and BSA only in the second experiment) and the γ2 DIII antigens individually (GST-γIII-20 was only tested in the second experiment; nonspecific biotinylated Ig was used as a control for the antibodies in both experiments). All incubations were performed at room temperature except step 1, below. 100 μl of reagents were used per well for incubations and 200 μl of PBST for washings unless otherwise mentioned. In addition, shaking the plate can be helpful for incubations.
ELISA plates were coated with 100 μl GST-γ2III chain fragments at concentration of 1 μg/ml in 0.1 M carbonate/bicarbonate buffer, pH 9, o/n at +4° C. (100 ng/well). The coated plates were washed three times with PBST. Non-specific binding was blocked with BSA-PBS incubation for 90 minutes (200 μl/well). Dilutions of reference standards, negative controls (quality controls), and sample were diluted in BSA-PBS and thereafter incubated for 1 h at room temperature. The plates were again washed three times with PBST. […] Absorbance was read with a microtitre plate reader at 405 nm after 30 min and after 60 min.

[7] = target: T9, BSA (bovine, UniProt P02769); assay: direct ELISA, fusion proteins coated at 100 ng/well, A405 (Example 3, second experiment)
T9 construct: also called bovine serum albumin
Experimental: as §3
(§4) ELISA plates were coated with 100 μl GST-γ2III chain fragments at concentration of 1 μg/ml in 0.1 M carbonate/bicarbonate buffer, pH 9, o/n at +4° C. (100 ng/well). The coated plates were washed three times with PBST. Non-specific binding was blocked with BSA-PBS incubation for 90 minutes (200 μl/well). Dilutions of reference standards, negative controls (quality controls), and sample were diluted in BSA-PBS and thereafter incubated for 1 h at room temperature. The plates were again washed three times with PBST. HRP-conjugated anti-mouse IgG secondary antibody was added to the wells (diluted 1:5000 in PBS) and allowed to incubate for 30 minutes. The plates were washed again three times with PBST. ABTS-peroxidase substrate was added. Substrates were prepared immediately before use: ABTS-stock (10×) was diluted with Citrate buffer (see Example 1); 2 μl of 30% hydrogen […] was added to each well and mixed. Substrate was added to the wells and incubated in dark conditions for 30 minutes. Absorbance was read with a microtitre plate reader at 405 nm after 30 min and after 60 min.

[8] = target: T6, GST-γ2III-20 (a.a. residues 461-534); assay: as above
Experimental: as §3, §4

[9] = target: T7, cyclic peptide X252 (Ln-5 residues …); assay: direct ELISA, peptide coated at 50 µg/ml (controls 5 µg/ml), antibody 100 ng/well, A450/620, mean of three ± SD
Experimental: as §1, with “The plates were incubated at room temperature for one hour, and thereafter washed four times in PBST.” left out
as §2, with “At an appropriate time, the reaction was stopped in each well with the addition of 4M H3PO4.” left out, “These experiments were performed in triplicate.” left out

T8 sequence (chain, as listed by the source limits assumed): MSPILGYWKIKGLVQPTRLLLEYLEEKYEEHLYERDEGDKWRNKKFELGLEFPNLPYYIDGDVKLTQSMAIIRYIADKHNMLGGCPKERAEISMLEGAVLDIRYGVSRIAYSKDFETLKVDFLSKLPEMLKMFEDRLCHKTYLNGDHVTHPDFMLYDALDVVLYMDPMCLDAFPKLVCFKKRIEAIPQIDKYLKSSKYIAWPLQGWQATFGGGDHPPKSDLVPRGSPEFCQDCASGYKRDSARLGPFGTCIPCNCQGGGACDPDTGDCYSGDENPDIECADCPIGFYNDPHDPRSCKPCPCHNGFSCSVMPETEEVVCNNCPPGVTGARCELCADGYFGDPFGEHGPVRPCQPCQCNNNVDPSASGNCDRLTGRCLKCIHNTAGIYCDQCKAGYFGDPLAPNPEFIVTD
T9 sequence (P02769 25-607 limits assumed): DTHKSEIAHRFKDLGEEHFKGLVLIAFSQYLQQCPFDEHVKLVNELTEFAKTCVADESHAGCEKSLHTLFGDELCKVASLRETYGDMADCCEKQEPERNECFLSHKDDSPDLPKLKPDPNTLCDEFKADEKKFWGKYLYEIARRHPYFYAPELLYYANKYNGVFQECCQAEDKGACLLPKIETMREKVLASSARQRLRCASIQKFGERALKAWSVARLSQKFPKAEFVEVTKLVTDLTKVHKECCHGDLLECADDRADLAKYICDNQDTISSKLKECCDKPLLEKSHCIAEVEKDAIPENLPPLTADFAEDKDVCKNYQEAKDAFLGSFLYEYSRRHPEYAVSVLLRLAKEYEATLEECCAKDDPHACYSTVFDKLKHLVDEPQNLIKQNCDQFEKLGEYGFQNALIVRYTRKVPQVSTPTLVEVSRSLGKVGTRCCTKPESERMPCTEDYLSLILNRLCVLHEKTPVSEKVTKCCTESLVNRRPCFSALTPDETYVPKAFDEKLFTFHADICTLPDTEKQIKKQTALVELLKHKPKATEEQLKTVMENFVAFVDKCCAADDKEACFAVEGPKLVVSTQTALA

Binder	binding result [1]	binding result [2]	binding result [3]	binding result [4]	Kd [5]	koff [5]	kon [5]	binding result [6]	binding result [7]	binding result [8]	binding result [9]
mAb 4G1 (antibody, V domains shown, Murine anti-γ2 DIII monoclonal antibody from hybridoma 4G1 (available from DAKO Cytomation); Biotinylated in some ELISAs; also called monoclonal antibody 4G1; γ2 DIII mAb 4G1) VH: EVKLEESGGGLVQPGGSMKLSCVASGFTFSNFWMNWVRQSPEKGLEWVAEIRLKSNNYATHYAESLKGRFTISRDDSKSNVYLQMNNLRPEDTGIYYCTRDYYGSSFAYWGQGTLVTVSA VL: DIVMTQAAFSNPVTLGTSASISCRSSKSLLHNIGITYLFWYLQKPGQSPQLLIYQMSKLASGVPDRFSGSGSGTDFTLRISRVEAEDVGIYYCAQNLELPPTFGSGTKLEIK	no binding	no binding	no binding	no binding	11.4 nM	0.000106 s⁻¹	9280 M⁻¹ s⁻¹	no binding	no binding	no binding	
mAb 6C12 (antibody, V domains shown, Murine anti-γ2 DIII monoclonal antibody from hybridoma 6C12, deposited at DSMZ as DSM ACC2653; Biotinylated in some ELISAs; also called monoclonal antibody 6C12; DSM ACC2653) VH: DVHLQESGPGLVKPSQSLSLTCTVTGYSITSDYAWNWIRQFPGNRLEWMGYITYSGGTNYNPSLKSRISFTRDTSKNQFFLQLNSVTTEDTATYYCANNFYGNFFDYWGQGTTLTVSS VL: QIVLTQSPAIMSASPGEKVTMTCSASSSVSYIHWYQQKSGTSPKRWIYDTSKLASGVPARFSGSGSGTSYSLTISSMQAEDAATYYCQQWSSSPPTFGGGTKLEIK					23.3 nM	0.000387 s⁻¹	16600 M⁻¹ s⁻¹		no binding		no binding (tested: 1 µg/ml)
